Consider one substance from CN114028562A.

This assay addresses 天然TSLP. The assay is described as follows: cell-based or functional assay.

The substance Tezepelumab (antibody) had an IC50, inhibition of natural TSLP-induced STAT5 phosphorylation in SW756-STAT5-Luciferase reporter cells of 1.45 ng/mL.
